From patent publication US20240150441A1

How the values were obtained:
[1] = molecular target: spike (S) protein of the BA.4/5 SARS-CoV-2 pseudovirus (SARS-CoV-2, Omicron subvariant BA.4/5) (UniProt P0DTC2); assay: cell-based or functional assay
[2] = molecular target: spike (S) protein of the authentic parental Omicron variant (B.1.1.529) of SARS-CoV-2 (SARS-CoV-2, B.1.1.529 (Omicron) variant) (UniProt P0DTC2); assay: cell-based or functional assay

## plant-made cilgavimab (pCilgavimab) (antibody)
[1]
  neutralization of BA.4/5 pseudovirus, luciferase reporter assay, IC50: 0.102 µg/mL
[2]
  neutralization of authentic B.1.1.529 (Omicron) virus, foci-forming assay, IC50: 2.23 µg/mL
